Results reported in patent US20260109742A1 (LUMEN BIOSCIENCE, published 2026).

What was measured:
[1] = target: PP1113 (MBP-5HVZ-PAPA-RN-29-H6); assay: analytical SEC, 5HVZ dimer with smAKAP clone at 1:2 molar ratio
[2] = target: PP1113 (MBP-5HVZ-PAPA-RN-29-H6); assay: hydrabody complex of smAKAP-linked VHH dimer with 5HVZ homodimer
Description: Briefly, to Assess in vitro protease stability of clones, purified protein samples were prepared at 0.2 mg/mL in protease digestion buffer (20 mM Bis-Tris, 150 mM NaCl, 3 mM CaCl2 pH 6.0). The protease enzymes trypsin and chymotrypsin were diluted from 1 mg/mL stalk concentration to 0.2 mg/mL in protease digest buffer. Both the protein and enzyme were diluted 1:10 in protease digestion buffer. The digestion reactions were conducted by mixing 30 μL of diluted protein and 30 μL of diluted protease. The reactions were mixed by centrifugation for 30 seconds at high speed and incubated at 37° C. for 60 minutes with shaking at 900 rpm in an Eppendorf ThermoMixer. Reactions were quenched with an equal volume of stop buffer containing 2 mM PMSF and 2× Pierce protease inhibitor minitablet in PBS. The final concentration of each VHH homodimer after protease neutralization was 0.1 mg/mL. Samples were kept on ice for ELISA assay.
Digested protein samples were analyzed for binding activity via ELISA. High-binding ELISA plates were coated with 100 μl/well of 1 μg/mL SARS-COV-2 RBD in CBC binding buffer and incubated overnight at 4° C. Plates were washed 3× with PBS supplemented with 0.05% Tween-20 (PBS-tw), then blocked for 1 hour with 300 μl/well of blocking buffer (PBS-tw supplemented with 5% Non-fat dried milk). […] Absorbance was read at 450 nm with a Spectra Max M5 plate reader.

Binder	binding result [1]	binding result [2]
PP2455 (myctag-S3b-C8-smAKAP_R63E_C70S_C78G-S3b-C8-H6) (bispecific antibody, also called R63E mutant) MEQKLISEEDLSGGQVQLVESGGGLVQPGGSLRLSCAASGSIENIERMHWYRQAPGKQRELVAVIDSGGTTRYADSVKGRFTISRDNAKNTVYLQMNSLKPEDTAVYYCAAVWLTNAESTQEYWGQGTQVTVSSGGGGSTVILEYAHELSQDILSDALQQWAGGGSGSQVQLVESGGGLVQPGGSLRLSCAASGSIENIERMHWYRQAPGKQRELVAVIDSGGTTRYADSVKGRFTISRDNAKNTVYLQMNSLKPEDTAVYYCAAVWLTNAESTQEYWGQGTQVTVSSHHHHHH	binds	
PP2456 (myctag-S3b-C8-smAKAP_R63E_C70S_W76S_C78G-S3b-C8-H6) (bispecific antibody, also called pp 2456 (W76S)) MEQKLISEEDLSGGQVQLVESGGGLVQPGGSLRLSCAASGSIENIERMHWYRQAPGKQRELVAVIDSGGTTRYADSVKGRFTISRDNAKNTVYLQMNSLKPEDTAVYYCAAVWLTNAESTQEYWGQGTQVTVSSGGGGSTVILEYAHELSQDILSDALQQSAGGGSGSQVQLVESGGGLVQPGGSLRLSCAASGSIENIERMHWYRQAPGKQRELVAVIDSGGTTRYADSVKGRFTISRDNAKNTVYLQMNSLKPEDTAVYYCAAVWLTNAESTQEYWGQGTQVTVSSHHHHHH	binds	
PP1895 (S3B-C8_smAKAP-C70S_C78S_S3B-C8_H6) (bispecific antibody) MSGQVQLVESGGGLVQPGGSLRLSCAASGSIENIERMHWYRQAPGKQRELVAVIDSGGTTRYADSVKGRFTISRDNAKNTVYLQMNSLKPEDTAVYYCAAVWLTNAESTQEYWGQGTQVTVSSGGTVILEYAHRLSQDILSDALQQWASSGGGGSGGGGGQVQLVESGGGLVQPGGSLRLSCAASGSIENIERMHWYRQAPGKQRELVAVIDSGGTTRYADSVKGRFTISRDNAKNTVYLQMNSLKPEDTAVYYCAAVWLTNAESTQEYWGQGTQVTVSSGGSHHHHHH		binds
